# Target: Recombinant FEN-1 (pET-FEN-1) (human, UniProt P39748 1-380)
# Experiment: pull-down
# Chain of Recombinant FEN-1 (pET-FEN-1) (P39748 whole entry): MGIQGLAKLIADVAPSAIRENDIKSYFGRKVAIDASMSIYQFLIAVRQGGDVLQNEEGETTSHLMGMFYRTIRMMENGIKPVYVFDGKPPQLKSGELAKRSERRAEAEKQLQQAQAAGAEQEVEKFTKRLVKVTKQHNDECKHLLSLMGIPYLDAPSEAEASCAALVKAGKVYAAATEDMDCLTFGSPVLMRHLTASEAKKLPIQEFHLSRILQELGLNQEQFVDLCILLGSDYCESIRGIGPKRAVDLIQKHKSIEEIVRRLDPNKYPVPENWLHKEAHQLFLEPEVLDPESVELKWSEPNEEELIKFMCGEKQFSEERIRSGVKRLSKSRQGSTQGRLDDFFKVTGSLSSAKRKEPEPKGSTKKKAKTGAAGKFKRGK
row,binding result,Binder
1,binds,"GST-RECQ1 C-terminal domain (residues 592-649) (domain or fragment, human, UniProt P46063 592-649, looked up) KSTQNSFRAESSQTCHSEQGDKKMEEKNSGNFQKKAANMLQQSGSKNTGAKKRKIDDA"
2,binds,"GST-RECQ1 RQC domain (residues 418-592) (domain or fragment, human, UniProt P46063 418-592, looked up) YGFGDIFRISSMVVMENVGQQKLYEMVSYCQNISKCRRVLMAQHFDEVWNSEACNKMCDNCCKDSAFERKNITEYCRDLIKILKQAEELNEKLTPLKLIDSWMGKGAAKLRVAGVVAPTLPREDLEKIIAHFLIQQYLKEDYSFTAYATISYLKIGPKANLLNNEAHAITMQVTK"

# From paper PMC4441847 (The Biochemical journal, 2015)
